This note sets out measurements from paper PMC9251408 (2022).

Assay [1] addresses T1, IL-10 receptor alpha (Mus musculus, UniProt Q61727).
T1 chain: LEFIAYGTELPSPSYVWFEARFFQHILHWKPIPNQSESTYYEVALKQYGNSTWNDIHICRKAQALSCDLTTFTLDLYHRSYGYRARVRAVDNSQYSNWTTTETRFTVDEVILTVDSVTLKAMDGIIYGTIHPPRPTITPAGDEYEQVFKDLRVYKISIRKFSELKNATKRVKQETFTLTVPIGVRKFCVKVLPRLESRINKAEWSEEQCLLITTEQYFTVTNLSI

The target in assay [2] is T2, IL-10 receptor alpha (Homo sapiens, UniProt Q13651).
T2 chain: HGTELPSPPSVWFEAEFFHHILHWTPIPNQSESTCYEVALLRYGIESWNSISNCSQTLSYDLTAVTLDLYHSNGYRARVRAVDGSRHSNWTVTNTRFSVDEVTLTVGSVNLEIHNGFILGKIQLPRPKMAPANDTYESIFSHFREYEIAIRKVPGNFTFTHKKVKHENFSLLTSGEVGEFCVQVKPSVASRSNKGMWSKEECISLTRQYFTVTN

B1: mFc-mIL-10 (mouse IL-10 mouse Fc-fusion) (protein)
chain: SRGQYSREDNNCTHFPVGQSHMLLELRTAFSQVKTFFQTKDQLDNILLTDSLMQDFKGYLGCQALSEMIQFYLVEVMPQAEKHGPEIKEHLNSLGEKLKTLRMRLRRCHRFLPCENKSKAVEQVKSDFNKLQDQGVYKAMNEFDIFINCIEAYMMIKMKS
modifications: IL-10 fused to C-terminus of effector-reduced mouse Fc via Gly-Ser linker
Take B1: in assay [1], binding was characterised by a dissociation constant (Kd) of 3.2 nM.

B2: hFc-hIL-10 (human IL-10 human Fc-fusion) (protein)
chain: SPGQGTQSENSCTHFPGNLPNMLRDLRDAFSRVKTFFQMKDQLDNLLLKESLLEDFKGYLGCQALSEMIQFYLEEVMPQAENQDPDIKAHVNSLGENLKTLRLRLRRCHRFLPCENKSKAVEQVKNAFNKLQEKGIYKAMSEFDIFINYIEAYMTMKIRN
modifications: IL-10 fused to C-terminus of effector-reduced human Fc via Gly-Ser linker
Consider B2, for which the Kd in assay [2] was 0.6 nM; in assay [1] it was 2.9 nM.
